Where a chain is given by its changes, count along the chain named.
Experiments:
[1] = tested on: DANCE-specific protease; assay: Inhibition of DANCE cleavage by protease inhibitors in transfected 293T cells; format: cell-based; conditions: 293T cells expressing human DANCE, serum-free medium with inhibitor, 48 hours; Western blotting with anti-FLAG M2
Protocol: 293T cells were used in expression experiments. Transfection was performed using the Lipofect AMINE Plus reagent as directed in the product instructions. 24 hours after transfection, the medium was exchanged with serum-free medium, and cultivation was continued for 48 hours; the resulting supernatant or cell lysate was used for Western blotting and in vitro binding assay.
A human DANCE cDNA with FLAG tag and 6×His tag added to the carboxyl terminus thereof was transfected to 293T cells; the cells were cultured using a serum-free medium comprising a cysteine protease inhibitor (E64) or serine protease inhibitor (aprotinin) for 48 hours; a recombinant protein was precipitated from the culture supernatant using Ni-NTA agarose and was developed by SDS-PAGE and Western blotting was performed using anti-FLAG M2 antibody.

[2] = tested on: DANCE-specific protease; assay: Cleavage of mutated versus normal form of DANCE expressed in 293T cells; format: cell-based, human; conditions: Arg77 substituted with Ala, serum-free medium 48 hours, Western blotting with anti-FLAG M2
Source text: The 77th amino acid of human DANCE, arginine, was substituted with alanine using the Quick Change in vitro mutagenesis kit (Stratagene). The other procedures were the same as pEF6-hDANCE-FLAG.
An expression vector for the mutated form of DANCE resulting from the substitution of the 77th arginine of DANCE with alanine (with C-terminal FLAG and 6×His tag) (FIG. 7), and an expression vector for normal form of DANCE (with C-terminal FLAG and 6×His tag) were transfected to 293T cells; the cells were cultured using serum-free medium for 48 hours; a recombinant protein was precipitated from the culture supernatant using Ni-NTA agarose, and developed by SDS-PAGE, and Western blotting was performed using anti-FLAG M2 antibody.

[3] = tested on: vascular endothelial cells; assay: Vascular endothelial cell adhesion assay; format: cell-based; conditions: purified recombinant protein used for coating
Source text: Full-length DANCE promotes the adhesion and extension of vascular endothelial cells via cell surface integrin. The present inventor has reported to date that full-length DANCE can serve as a ligand for the integrins αvβ3, αvβ5, and α9β1. Since the domain serving as the ligand is considered to be around the RGD motif of the amino-terminal domain of DANCE, each recombinant protein of a DANCE mutant wherein RGD was replaced with RGE for one-amino-acid substitution (RGE DANCE), and amino-terminal cleaved form of DANCE (ΔND DANCE) were purified, and these, along with full-length DANCE, were subjected to vascular endothelial cell adhesion assay (FIG. 13).

[4] = target: T1, DANCE (Bos taurus, UniProt Q5EA62); assay: Precipitation of DANCE-binding proteins from smooth muscle cell culture supernatant (homo-complex); conditions: 50 μg recombinant human DANCE mixed with 35S-labeled bovine arterial smooth muscle cell supernatant, anti-FLAG precipitation
T1 construct: After bovine arterial smooth muscle cells seeded on a 9-cm plate were labeled with 35S-Met and Cys for 24 hours; host or cells: bovine arterial smooth muscle cells (culture supernatant); bait purified from stably transfected 293T cells
T1 sequence (Q5EA62 24-448): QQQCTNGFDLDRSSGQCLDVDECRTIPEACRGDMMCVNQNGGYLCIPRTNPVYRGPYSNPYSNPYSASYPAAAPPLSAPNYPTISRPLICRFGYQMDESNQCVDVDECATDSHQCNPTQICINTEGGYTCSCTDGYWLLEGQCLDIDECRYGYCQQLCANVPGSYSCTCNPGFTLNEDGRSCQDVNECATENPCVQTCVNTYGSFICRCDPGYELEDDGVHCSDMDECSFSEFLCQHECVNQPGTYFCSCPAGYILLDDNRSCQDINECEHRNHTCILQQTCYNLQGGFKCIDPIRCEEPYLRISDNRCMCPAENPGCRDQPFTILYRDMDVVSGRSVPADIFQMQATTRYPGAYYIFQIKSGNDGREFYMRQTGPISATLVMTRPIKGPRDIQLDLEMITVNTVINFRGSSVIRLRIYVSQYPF
T1 sequence (Q9UBX5 24-448 partner): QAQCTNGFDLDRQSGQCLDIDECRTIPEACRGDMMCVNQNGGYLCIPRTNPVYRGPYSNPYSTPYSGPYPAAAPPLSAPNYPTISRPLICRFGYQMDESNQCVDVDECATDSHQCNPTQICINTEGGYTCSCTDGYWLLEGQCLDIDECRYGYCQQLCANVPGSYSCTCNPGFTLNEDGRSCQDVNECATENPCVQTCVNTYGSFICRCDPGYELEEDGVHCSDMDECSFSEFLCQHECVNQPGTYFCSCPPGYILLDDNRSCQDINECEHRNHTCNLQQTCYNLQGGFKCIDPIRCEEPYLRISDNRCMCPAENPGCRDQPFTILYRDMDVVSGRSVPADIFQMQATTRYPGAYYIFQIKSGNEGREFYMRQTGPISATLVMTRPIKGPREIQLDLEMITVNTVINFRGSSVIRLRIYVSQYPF
Protocol: (§1) After bovine arterial smooth muscle cells seeded on a 9-cm plate were labeled with 35S-Met and Cys for 24 hours, the culture supernatant and 50 μg of recombinant human DANCE (with C-terminal FLAG and 6×His) were mixed and precipitated with anti-FLAG agarose (Sigma), and the resulting precipitate was developed by SDS-PAGE and autoradiography was performed. The same culture supernatant was immunoprecipitated with commercially available antibodies against elastic fiber constituent protein (elastin, fibrillin 1, fibrillin 2 and LTBP2), and developed with the same SDS-PAGE gel, and autoradiography was performed.

[5] = target: T2, LTBP2 (Bos taurus, UniProt Q28019); assay: Precipitation of DANCE-binding proteins from smooth muscle cell culture supernatant (LTBP2); conditions: 50 μg recombinant human DANCE mixed with 35S-labeled bovine arterial smooth muscle cell supernatant, anti-FLAG precipitation
T2 construct: host or cells: bovine arterial smooth muscle cells (culture supernatant); bait purified from stably transfected 293T cells
T2 sequence (Q28019 36-1842, one chain of several): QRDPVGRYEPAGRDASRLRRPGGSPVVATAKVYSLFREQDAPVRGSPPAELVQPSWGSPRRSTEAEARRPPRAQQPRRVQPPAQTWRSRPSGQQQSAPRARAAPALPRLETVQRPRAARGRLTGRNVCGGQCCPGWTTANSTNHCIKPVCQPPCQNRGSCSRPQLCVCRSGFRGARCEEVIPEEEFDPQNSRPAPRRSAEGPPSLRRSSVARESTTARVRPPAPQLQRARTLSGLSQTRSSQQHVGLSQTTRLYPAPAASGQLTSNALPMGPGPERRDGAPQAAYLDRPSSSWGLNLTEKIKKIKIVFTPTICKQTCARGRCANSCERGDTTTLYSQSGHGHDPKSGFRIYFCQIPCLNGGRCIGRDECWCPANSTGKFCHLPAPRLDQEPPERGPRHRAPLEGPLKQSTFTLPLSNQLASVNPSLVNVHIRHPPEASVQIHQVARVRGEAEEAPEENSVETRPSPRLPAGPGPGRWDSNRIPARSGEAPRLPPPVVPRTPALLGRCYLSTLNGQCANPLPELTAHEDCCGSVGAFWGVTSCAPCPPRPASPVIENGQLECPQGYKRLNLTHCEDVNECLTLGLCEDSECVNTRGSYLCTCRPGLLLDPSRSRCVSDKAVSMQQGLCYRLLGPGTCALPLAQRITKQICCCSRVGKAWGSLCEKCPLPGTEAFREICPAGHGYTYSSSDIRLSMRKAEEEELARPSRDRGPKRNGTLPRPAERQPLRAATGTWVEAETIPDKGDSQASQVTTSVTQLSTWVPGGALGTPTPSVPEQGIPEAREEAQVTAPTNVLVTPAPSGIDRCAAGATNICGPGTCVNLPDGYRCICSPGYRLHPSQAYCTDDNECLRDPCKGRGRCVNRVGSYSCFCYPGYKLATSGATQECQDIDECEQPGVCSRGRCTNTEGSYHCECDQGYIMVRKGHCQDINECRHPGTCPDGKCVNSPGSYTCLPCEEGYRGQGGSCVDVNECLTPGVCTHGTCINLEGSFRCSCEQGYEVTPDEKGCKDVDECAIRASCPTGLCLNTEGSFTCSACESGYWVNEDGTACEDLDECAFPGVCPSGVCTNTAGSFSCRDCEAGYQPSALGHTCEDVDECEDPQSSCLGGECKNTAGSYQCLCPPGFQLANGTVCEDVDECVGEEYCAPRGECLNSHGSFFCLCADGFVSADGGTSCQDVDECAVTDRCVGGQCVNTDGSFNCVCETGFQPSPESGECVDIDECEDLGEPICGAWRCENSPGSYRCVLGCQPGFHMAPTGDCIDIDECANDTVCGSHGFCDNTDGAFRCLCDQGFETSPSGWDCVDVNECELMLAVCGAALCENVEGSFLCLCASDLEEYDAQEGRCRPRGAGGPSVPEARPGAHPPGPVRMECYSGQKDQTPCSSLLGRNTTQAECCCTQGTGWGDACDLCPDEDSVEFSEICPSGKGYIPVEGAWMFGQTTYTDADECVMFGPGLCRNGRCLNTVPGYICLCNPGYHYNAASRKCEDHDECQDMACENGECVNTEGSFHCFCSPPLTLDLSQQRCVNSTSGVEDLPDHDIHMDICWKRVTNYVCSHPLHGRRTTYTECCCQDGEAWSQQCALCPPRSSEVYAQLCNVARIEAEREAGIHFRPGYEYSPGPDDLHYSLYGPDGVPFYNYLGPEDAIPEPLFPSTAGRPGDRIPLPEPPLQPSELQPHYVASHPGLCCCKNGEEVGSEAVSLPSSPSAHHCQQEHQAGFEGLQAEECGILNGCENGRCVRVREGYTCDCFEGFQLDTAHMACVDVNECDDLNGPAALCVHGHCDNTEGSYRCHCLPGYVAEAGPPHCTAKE
Protocol: as §1

[6] = target: T3, human lysyl oxidase (Homo sapiens, UniProt P28300); assay: In vitro binding assay, DANCE with lysyl oxidase; conditions: anti-FLAG precipitation, anti-Myc detection
T3 construct: The 22nd amino acid to the 417th amino acid of the polypeptide (417 amino acids) encoded by human lysyl oxidase; expressed in transfected cells
T3 sequence (P28300 22-417): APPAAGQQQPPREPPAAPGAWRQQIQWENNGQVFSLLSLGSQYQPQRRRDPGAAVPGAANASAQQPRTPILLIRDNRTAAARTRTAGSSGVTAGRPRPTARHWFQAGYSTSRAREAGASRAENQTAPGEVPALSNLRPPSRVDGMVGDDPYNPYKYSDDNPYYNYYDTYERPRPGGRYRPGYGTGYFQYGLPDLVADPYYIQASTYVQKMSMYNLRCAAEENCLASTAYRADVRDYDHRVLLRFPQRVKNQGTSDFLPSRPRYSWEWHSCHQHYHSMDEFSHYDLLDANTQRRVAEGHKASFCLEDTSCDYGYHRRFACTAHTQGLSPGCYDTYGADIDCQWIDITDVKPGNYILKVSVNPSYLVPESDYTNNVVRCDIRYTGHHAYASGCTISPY
T3 sequence (Q9UBX5 24-448 partner): T1 sequence (Q9UBX5 24-448 partner)
Protocol: The 22nd amino acid to the 417th amino acid of the polypeptide (417 amino acids) encoded by human lysyl oxidase (GenBank accession number: AF039291.1) cDNA was amplified by a PCR method and incorporated in the XbaI/NotI site of pEF6/ssMyc.
A human DANCE construct with FLAG tag (FIG. 8), a human DANCE construct with Myc tag, and a human LTBP2 construct were separately transfected to 293T cells. After cultivation in serum-free medium for 48 hours, each culture supernatant and cell extract were mixed, and this was used as the protein solution. A protein solution from the DANCE construct with FLAG tag and a protein solution from DANCE or LTBP2 with Myc tag were mixed on ice for 1 hour, and precipitated with anti-FLAG antibody, and the resulting precipitate was developed by SDS-PAGE, and detected using anti-Myc antibody or anti-FLAG antibody.
The assay was performed in the same manner as Example 6 except that a precipitate obtained using anti-FLAG antibody was developed by SDS-PAGE and detected using anti-Myc antibody.

[7] = tested on: human skin fibroblasts; assay: Formation of elastic fibers in cultured human skin fibroblasts; format: cell-based
Protocol: Human fibroblasts were kindly supplied by the Department of Plastic Surgery, Kyoto University Hospital. A cover glass was placed on the bottom of a 24-well plate, on which human fibroblasts were seeded at 7.5×10^4 cells per well, and cultured in a DMEM medium supplemented with 10% FBS at 37° C. in the presence of 5% CO2. After the plate washed with PBS on Day 3, the medium was exchanged with a DMEM/F12 medium not supplemented with FBS, and purified DANCE protein, cleaved form of DANCE protein 4 μg/ml, or FBS was added. Cultivation was continued at 37° C. in the presence of 5% CO2, and the cells were fixed and immunologically stained on Day 14.
On Day 14 of cultivation, the cells were washed with 1 ml of PBS three times, after which they were fixed with 100% methanol at −20° C. for 30 minutes. After washing with PBS, the cells were subjected to blocking with a PBS containing 2% BSA at room temperature for 30 minutes, after which the cells were incubated with the polyclonal anti-elastin antibody (dilution rate 1/100) and the monoclonal anti-FLAG antibody (dilution rate 1/100) at room temperature for at least 1 hour. The cells were washed with PBS and further incubated with the anti-rabbit Alexa Fluor 488 antibody (dilution rate 1/100) and the anti-mouse Alexa Fluor 546 antibody (dilution rate 1/100) at room temperature for 1 hour. After washing with PBS, the cells were fixed with 4% para-formaldehyde at room temperature for 10 minutes and again washed with PBS, after which the sample was mounted onto a glass slide using a DAPI-containing Vectashield. Examination was performed using a confocal microscope.
Human skin fibroblasts were seeded to reach confluency; the medium was replaced with serum-free medium or a medium containing 10% fetal calf serum; the cells were cultured for 2 weeks; the formation of elastic fibers was analyzed by immunostaining with anti-elastin antibody.

CC(C)C[C@H](NC(=O)[C@H]1O[C@@H]1C(=O)O)C(=O)NCCCCN=C(N)N [E64]
inhibition of the cleavage of DANCE [1]: not inhibited

aprotinin
inhibition of the cleavage of DANCE [1]: inhibited

B1: mutated form of DANCE: mutated form of DANCE resulting from the substitution of the 77th arginine of DANCE with alanine (protein, UniProt Q9UBX5 24-448, looked up, variant R77A)
Fibulin-5: T1 sequence (Q9UBX5 24-448 partner) with R54A
resistance to cleavage with a protease [2]: exhibit resistance to cleavage with a protease

B2: RGE DANCE: DANCE mutant wherein RGD was replaced with RGE for one-amino-acid substitution (protein)
chain: T1 sequence (Q9UBX5 24-448 partner) with D33E
modifications: left off: small tags and cut ends
notes: DANCE mutant wherein RGD was replaced with RGE for one-amino-acid substitution
cell adhesion activity [3]: almost no cell adhesion activity

B3: DANCE: secretory protein (developmental arteries and neural crest EGF-like; fibulin-5), SEQ ID NO:2 or 4; recombinant human form with C-terminal FLAG and 6×His (protein, listed as Homo sapiens)
chain: MPGIKRILTVTILALCLPSPGNAQAQCTNGFDLDRQSGQCLDIDECRTIPEACRGDMMCVNQNGGYLCIPRTNPVYRGPYSNPYSTPYSGPYPAAAPPLSAPNYPTISRPLICRFGYQMDESNQCVDVDECATDSHQCNPTQICINTEGGYTCSCTDGYWLLEGQCLDIDECRYGYCQQLCANVPGSYSCTCNPGFTLNEDGRSCQDVNECATENPCVQTCVNTYGSFICRCDPGYELEEDGVHCSDMDECSFSEFLCQHECVNQPGTYFCSCPPGYILLDDNRSCQDINECEHRNHTCNLQQTCYNLQGGFKCIDPIRCEEPYLRISDNRCMCPAENPGCRDQPFTILYRDMDVVSGRSVPADIFQMQATTRYPGAYYIFQIKSGNEGREFYMRQTGPISATLVMTRPIKGPREIQLDLEMITVNTVINFRGSSVIRLRIYVSQYPF
modifications: C-terminal FLAG and 6xHis tags
notes: secretory protein (developmental arteries and neural crest EGF-like); recombinant human form with C-terminal FLAG and 6×His
formation of a homo-complex [4]: forms a homo-complex | binding to LTBP2 [5]: binds to LTBP2 | binding to lysyl oxidase [6]: suggested to bind to lysyl oxidase | cell adhesion activity [3]: cell adhesion was promoted with dependence on the concentration of the protein used for coating | formation of elastic fibers (anti-elastin immunostaining) ([7]; protein added to serum-free medium at 4 μg/ml, cultured for 2 weeks): elastic fibers were formed at a higher level than with the serum-containing medium | localization of the added recombinant protein (anti-FLAG antibody) ([7]; serum-free medium, 4 μg/ml): co-localized with the elastic fibers formed
